According to IntAct's records for PubMed 16698552:

B1: Eukaryotic translation initiation factor 4 gamma 1 (Homo sapiens), Q04637-8 (parent)
chain: MNKAPQSTGPPPAPSPGLPQPAFPPGQTAPVVFSTPQATQMNTPSQPRQHFYPSRAQPPSSAASRVQSAAPARPGPAAHVYPAGSQVMMIPSQISYPASQGAYYIPGQGRSTYVVPTQQYPVQPGAPGFYPGASPTEFGTYAGAYYPAQGVQQFPTGVAPTPVLMNQPPQIAPKRERKTIRIRDPNQGGKDITEEIMSGARTASTPTPPQTGGGLEPQANGETPQVAVIVRPDDRSQGAIIADRPGLPGPEHSPSESQPSSPSPTPSPSPVLEPGSEPNLAVLSIPGDTMTTIQMSVEESTPISRETGEPYRLSPEPTPLAEPILEVEVTLSKPVPESEFSSSPLQAPTPLASHTVEIHEPNGMVPSEDLEPEVESSPELAPPPACPSESPVPIAPTAQPEELLNGAPSPPAVDLSPVSEPEEQAKEVTASMAPPTIPSATPATAPSATSPAQEEEMEEEEEEEEGEAGEAGEAESEKGGEELLPPESTPIPANLSQNLEAAAATQVAVSVPKRRRKIKELNKKEAVGDLLDAFKEANPAVPEVENQPPAGSNPGPESEGSGVPPRPEEADETWDSKEDKIHNAENIQPGEQKYEYKSDQWKPLNLEEKKRYDREFLLGFQFIFASMQKPEGLPHISDVVLDKANKTPLRPLDPTRLQGINCGPDFTPSFANLGRTTLSTRGPPRGGPGGELPRGPQAGLGPRRSQQGPRKEPRKIIATVLMTEDIKLNKAEKAWKPSSKRTAADKDRGEEDADGSKTQDLFRRVRSILNKLTPQMFQQLMKQVTQLAIDTEERLKGVIDLIFEKAISEPNFSVAYANMCRCLMALKVPTTEKPTVTVNFRKLLLNRCQKEFEKDKDDDEVFEKKQKEMDEAATAEERGRLKEELEEARDIARRRSLGNIKFIGELFKLKMLTEAIMHDCVVKLLKNHDEESLECLCRLLTTIGKDLDFEKAKPRMDQYFNQMEKIIKEKKTSSRIRFMLQDVLDLRGSNWVPRRGDQGPKTIDQIHKEAEMEEHREHIKVQQLMAKGSDKRRGGPPGPPISRGLPLVDDGGWNTVPISKGSRPIDTSRLTKITKPGSIDSNNQLFAPGGRLSWGKGSSGGSGAKPSDAASEAARPATSTLNRFSALQQAVPTESTDNRRVVQRSSLSRERGEKAGDRGDRLERSERGGDRGDRLDRARTPATKRSFSKEVEERSRERPSQPEGLRKAASLTEDRDRGRDAVKREAALPPVSPLKAALSEEELEKKSKAIIEEYLHLNDMKEAVQCVQELASPSLLFIFVRHGVESTLERSAIAREHMGQLLHQLLCAGHLSTAQYYQGLYEILELAEDMEIDIPHVWLYLAELVTPILQEGGVPMGELFREITKPLRPLGKAASLLLEILGLLCKSMGPKKVGTLWREAGLSWKEFLPEGQDIGAFVAEQKVEYTLGEESEAPGQRALPSEELNRQLEKLLKEGSSNQRVFDWIEANLSEQQIVSNTLVRALMTAVCYSAIIFETPLRVDVAVLKARAKLLQKYLCDEQKELQALYALQALVVTLEQPPNLLRMFFDALYDEDVVKEDAFYSWESSKDPAEQQGKGVALKSVTAFFKWLREAEEESDHN

Variants of: B1
Conditions: with if4g1_human EIF4G1, Q04637

Variant	effect of a mutation on the interaction
I1278A;F1279A;V1280A	disrupting interaction
